This is an account of results in publication PMC3105396 (Nucleic Acids Research, 2011).

The experiment concerns the target POLRMT.STREP2 (POLRMT carrying a FLAG and a STREP2 binding group) (human, UniProt O00411 42-1230). The experiment in a line: pull-down.

POLRMT.STREP2 (POLRMT carrying a FLAG and a STREP2 binding group), sequence (O00411 42-1230): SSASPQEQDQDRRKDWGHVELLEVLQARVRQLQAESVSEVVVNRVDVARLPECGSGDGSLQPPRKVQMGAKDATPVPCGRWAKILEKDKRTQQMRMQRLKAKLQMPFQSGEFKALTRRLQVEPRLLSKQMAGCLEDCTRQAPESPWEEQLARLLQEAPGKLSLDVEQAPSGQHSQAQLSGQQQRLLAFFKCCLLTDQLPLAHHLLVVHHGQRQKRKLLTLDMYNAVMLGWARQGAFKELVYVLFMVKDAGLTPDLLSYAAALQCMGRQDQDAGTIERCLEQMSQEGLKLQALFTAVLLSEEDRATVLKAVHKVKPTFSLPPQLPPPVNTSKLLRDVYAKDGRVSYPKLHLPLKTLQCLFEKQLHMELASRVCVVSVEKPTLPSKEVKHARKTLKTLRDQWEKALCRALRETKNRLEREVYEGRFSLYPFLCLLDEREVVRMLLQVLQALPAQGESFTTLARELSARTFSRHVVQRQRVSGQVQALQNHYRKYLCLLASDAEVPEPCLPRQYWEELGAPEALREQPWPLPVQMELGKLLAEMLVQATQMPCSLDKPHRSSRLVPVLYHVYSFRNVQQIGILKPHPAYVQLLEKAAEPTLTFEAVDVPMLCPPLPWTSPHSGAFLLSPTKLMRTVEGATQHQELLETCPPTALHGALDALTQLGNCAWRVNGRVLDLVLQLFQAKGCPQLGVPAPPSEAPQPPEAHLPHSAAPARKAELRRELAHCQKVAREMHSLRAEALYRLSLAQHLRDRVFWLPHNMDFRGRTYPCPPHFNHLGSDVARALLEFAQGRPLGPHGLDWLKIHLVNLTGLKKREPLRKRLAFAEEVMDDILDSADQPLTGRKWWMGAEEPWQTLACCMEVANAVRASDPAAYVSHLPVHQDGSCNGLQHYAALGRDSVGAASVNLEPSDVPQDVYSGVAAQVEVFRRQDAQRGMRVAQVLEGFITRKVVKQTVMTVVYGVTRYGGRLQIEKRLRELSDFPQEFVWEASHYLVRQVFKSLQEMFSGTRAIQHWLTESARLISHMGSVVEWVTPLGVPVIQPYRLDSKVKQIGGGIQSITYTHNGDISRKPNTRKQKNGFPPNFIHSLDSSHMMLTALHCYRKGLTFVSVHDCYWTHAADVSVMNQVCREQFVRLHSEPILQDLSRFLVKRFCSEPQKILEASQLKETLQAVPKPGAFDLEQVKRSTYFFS

B1: TEFM (transcription elongation factor of mitochondria), endogenous (natural protein, human (endogenous in HEK 293T), UniProt Q96QE5 36-360, looked up)
chain: KSTTPKKITPNVTFCDENAKEPENALDKLFSSEQQASILHVLNTASTKELEAFRLLRGRRSINIVEHRENFGPFQNLESLMNVPLFKYKSTVQVCNSILCPKTGREKRKSPENRFLRKLLKPDIERERLKAVNSIISIVFGTRRIAWAHLDRKLTVLDWQQSDRWSLMRGIYSSSVYLEEISSIISKMPKADFYVLEKTGLSIQNSSLFPILLHFHIMEAMLYALLNKTFAQDGQHQVLSMNRNAVGKHFELMIGDSRTSGKELVKQFLFDSILKADPRVFFPSDKIVHYRQMFLSTELQRVEELYDSLLQAIAFYELAVFDSQP
B1: the “amount in the POLRMT.STREP2 peak elution fractions relative to TFAM” value was found to be 2 fold and the “amount in the POLRMT.STREP2 peak elution fractions relative to TFB2M” value amounted to 5 fold.
